In test [1] the target is human growth hormone receptor on IM-9 cells (human) (UniProt P10912). Nature of the test: cell-based or functional assay.
Test [2] deals with T1, full length rat GHR (L43R) on BAF3 cells (clone 2E2-2B12-F4) (rat) (UniProt P16310).
T1 sequence (looked up): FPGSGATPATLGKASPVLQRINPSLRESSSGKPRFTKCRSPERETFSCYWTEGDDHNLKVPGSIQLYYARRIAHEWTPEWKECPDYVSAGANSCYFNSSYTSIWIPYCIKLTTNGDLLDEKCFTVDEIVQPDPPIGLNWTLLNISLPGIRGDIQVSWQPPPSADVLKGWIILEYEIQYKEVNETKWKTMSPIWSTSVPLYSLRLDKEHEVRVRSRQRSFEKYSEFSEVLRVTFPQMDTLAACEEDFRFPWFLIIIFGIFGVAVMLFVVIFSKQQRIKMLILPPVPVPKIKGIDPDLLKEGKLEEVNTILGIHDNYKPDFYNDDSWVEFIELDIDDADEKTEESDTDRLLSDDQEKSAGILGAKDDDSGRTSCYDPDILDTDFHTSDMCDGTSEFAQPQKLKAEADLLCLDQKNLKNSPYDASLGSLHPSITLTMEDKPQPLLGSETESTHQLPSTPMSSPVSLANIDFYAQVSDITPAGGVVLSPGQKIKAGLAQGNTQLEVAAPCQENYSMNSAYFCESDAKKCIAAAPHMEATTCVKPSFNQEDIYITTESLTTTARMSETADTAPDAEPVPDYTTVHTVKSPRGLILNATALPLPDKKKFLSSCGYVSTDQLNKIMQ
Nature of the test: cell-based or functional assay.

The target in test [3] is T2, rat GHR ECD (L43R), soluble, C-terminal 6His (rat, UniProt P16310 47-256).
T2 construct: also called soluble GHR ECD; rat GHR (L43R) extra cellular domain; not shown: C-terminal 6His tag of pET20b
T2 sequence (looked up): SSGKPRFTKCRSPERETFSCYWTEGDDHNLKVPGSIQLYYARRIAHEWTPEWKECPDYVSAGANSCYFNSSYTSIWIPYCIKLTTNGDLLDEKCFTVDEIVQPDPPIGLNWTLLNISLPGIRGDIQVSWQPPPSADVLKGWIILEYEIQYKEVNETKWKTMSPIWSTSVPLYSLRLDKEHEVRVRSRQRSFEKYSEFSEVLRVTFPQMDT
The experiment in a line: Biacore SPR; rat GHR ECD (L43R) on CM5 chip, GH injected; bivalent analyte model.

Test [4] deals with T3, human growth hormone receptor on IM-9 cells (human, UniProt P10912 19-638).
T3 sequence (looked up): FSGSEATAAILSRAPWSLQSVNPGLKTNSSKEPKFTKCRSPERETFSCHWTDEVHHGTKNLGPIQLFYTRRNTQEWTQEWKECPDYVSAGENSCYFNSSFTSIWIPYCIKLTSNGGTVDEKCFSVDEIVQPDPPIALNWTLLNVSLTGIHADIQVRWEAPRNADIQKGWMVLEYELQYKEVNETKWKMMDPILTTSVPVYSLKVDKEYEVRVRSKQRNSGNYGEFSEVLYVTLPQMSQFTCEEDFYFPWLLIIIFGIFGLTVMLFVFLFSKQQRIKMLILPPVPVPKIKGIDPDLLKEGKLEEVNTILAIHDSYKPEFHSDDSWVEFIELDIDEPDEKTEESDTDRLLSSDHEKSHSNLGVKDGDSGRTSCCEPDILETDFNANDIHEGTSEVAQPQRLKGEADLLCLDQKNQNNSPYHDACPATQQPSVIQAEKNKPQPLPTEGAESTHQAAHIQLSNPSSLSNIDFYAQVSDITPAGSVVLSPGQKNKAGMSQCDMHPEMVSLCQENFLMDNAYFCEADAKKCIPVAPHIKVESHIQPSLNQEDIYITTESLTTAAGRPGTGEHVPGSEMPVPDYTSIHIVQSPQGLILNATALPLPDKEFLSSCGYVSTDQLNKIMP
Nature of the test: cell-based or functional assay.

Some results are limits rather than exact numbers.

Molecule “hGH G131pAF-30KPEG (from UniProt P01241 27-217) (ligand)” displayed a pSTAT5 EC50 (IM-9) (nM as headed; WHO hGH expressed as unity) in test [1] of 23.8. In test [2], this molecule showed a Proliferation EC50 (BrdU, rat GHR (L43R) BAF3 cells) (nM as headed; WHO hGH expressed as unity) of 4.6.
With “hGH K145pAF-30KPEG (from UniProt P01241 27-217) (ligand)”, the pSTAT5 EC50 (IM-9) (nM as headed; WHO hGH expressed as unity) in test [1] was determined as 20.6. The Proliferation EC50 (BrdU, rat GHR (L43R) BAF3 cells) (nM as headed; WHO hGH expressed as unity) in test [2] was 5.3.
Molecule “hGH R134pAF-20KPEG (from UniProt P01241 27-217) (ligand)” returned a pSTAT5 EC50 (IM-9) (nM as headed; WHO hGH expressed as unity) in test [1] of 5.3.
For the molecule “hGH Y35pAF-40KPEG (from UniProt P01241 27-217) (ligand)”, the pSTAT5 EC50 (IM-9) (nM as headed; WHO hGH expressed as unity) in test [1] came to 53.3. This molecule showed a Proliferation EC50 (BrdU, rat GHR (L43R) BAF3 cells) (nM as headed; WHO hGH expressed as unity) in test [2] of 24.
On to “hGH Y143pAF-30KPEG (from UniProt P01241 27-217) (ligand)”, for which, in test [1], the pSTAT5 EC50 (IM-9) (nM as headed; WHO hGH expressed as unity) was determined as 12.3. The molecule also showed a Proliferation EC50 (BrdU, rat GHR (L43R) BAF3 cells) (nM as headed; WHO hGH expressed as unity) in test [2] of 6.6.

B1: rat GH WT (ligand, UniProt P01244 27-216, looked up)
chain: FPAMPLSSLFANAVLRAQHLHQLAADTYKEFERAYIPEGQRYSIQNAQAAFCFSETIPAPTGKEEAQQRTDMELLRFSLLLIQSWLGPVQFLSRIFTNSLMFGTSDRVYEKLKDLEEGIQALMQELEDGSPRIGQILKQTYDKFDANMRSDDALLKNYGLLSCFKKDLHKAETYLRVMKCRRFAESSCAF
notes: also called rat growth hormone
As to B1, in test [3], the Kd worked out at 250 nM, the koff turned out to be 0.0083 s⁻¹ and the kon is 33000 M⁻¹ s⁻¹. Besides, the “EC50 (nM), STAT5 phosphorylation in IM-9 cells” value in test [4] was greater than 200000 nM.

What is called koff is a measure of how fast the partners let go of each other. Higher therefore signals a short-lived complex. As a reminder, the kon is a measure of how fast the partners come together. Read a low kon as slower complex formation.

For the origin of these results see patent publication US20060189529A1 (AMBRX, published 2006).
